Columns and labels:
DFX = molecular target: T1, DFX; assay: negative-stain EM of the heterotrimer; components named in the legend
T1 construct: Bivalent connector
T1 chain: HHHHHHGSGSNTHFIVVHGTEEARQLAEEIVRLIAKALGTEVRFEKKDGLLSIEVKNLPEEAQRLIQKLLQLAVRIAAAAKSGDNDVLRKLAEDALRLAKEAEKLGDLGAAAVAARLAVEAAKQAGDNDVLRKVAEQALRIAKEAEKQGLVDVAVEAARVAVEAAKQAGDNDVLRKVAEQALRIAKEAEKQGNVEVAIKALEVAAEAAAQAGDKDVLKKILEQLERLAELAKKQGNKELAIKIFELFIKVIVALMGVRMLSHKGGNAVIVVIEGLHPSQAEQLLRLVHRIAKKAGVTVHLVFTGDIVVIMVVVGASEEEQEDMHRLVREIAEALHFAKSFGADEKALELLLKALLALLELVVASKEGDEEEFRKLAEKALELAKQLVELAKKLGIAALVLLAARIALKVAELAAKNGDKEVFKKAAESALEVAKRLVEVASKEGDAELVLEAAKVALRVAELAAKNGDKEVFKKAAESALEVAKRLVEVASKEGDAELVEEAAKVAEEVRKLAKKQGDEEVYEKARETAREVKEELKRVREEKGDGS
Protocol: (§1) SEC peak fractions were concentrated prior to negative stain EM screening. Samples were then immediately diluted 5 to 150 times in TBS buffer (25 mM Tris pH 8.0, 25 mM NaCl) depending on sample concentration. A final volume of 5 μL was applied to negatively glow discharged, carbon-coated 400-mesh copper grids (01844-F, TedPella, Inc.), then washed with Milli-Q™ Water and stained using 0.75% uranyl formate as previously described (53). Air-dried grids were imaged on a FEI Talos L120C TEM (FEI Thermo Scientific, Hillsboro, OR) equipped with a 4K×4K Gatan OneView™ camera at a magnification of 57,000× and pixel size of 2.51. Micrographs were imported into CisTEM software or cryoSPARC™ software and a circular blob picker was used to select particles which were then subjected to 2D classification. Ab initio reconstruction and homogeneous refinement in Cn symmetry were used to generate 3D electron density maps (54, 55).

[1] = molecular target: the molecule itself; assay: SEC titration of the protomer alone at several injection concentrations (Superdex 200, normalised A230); self-association
TF10 = molecular target: T2, TF10; assay: SEC (A230) of A---, -BCD and ABCD and negative-stain EM; components named in the legend of FIG. 17A, which paragraph 104 ties to FIG. 4A
T2 construct: Trivalent connector
T2 chain: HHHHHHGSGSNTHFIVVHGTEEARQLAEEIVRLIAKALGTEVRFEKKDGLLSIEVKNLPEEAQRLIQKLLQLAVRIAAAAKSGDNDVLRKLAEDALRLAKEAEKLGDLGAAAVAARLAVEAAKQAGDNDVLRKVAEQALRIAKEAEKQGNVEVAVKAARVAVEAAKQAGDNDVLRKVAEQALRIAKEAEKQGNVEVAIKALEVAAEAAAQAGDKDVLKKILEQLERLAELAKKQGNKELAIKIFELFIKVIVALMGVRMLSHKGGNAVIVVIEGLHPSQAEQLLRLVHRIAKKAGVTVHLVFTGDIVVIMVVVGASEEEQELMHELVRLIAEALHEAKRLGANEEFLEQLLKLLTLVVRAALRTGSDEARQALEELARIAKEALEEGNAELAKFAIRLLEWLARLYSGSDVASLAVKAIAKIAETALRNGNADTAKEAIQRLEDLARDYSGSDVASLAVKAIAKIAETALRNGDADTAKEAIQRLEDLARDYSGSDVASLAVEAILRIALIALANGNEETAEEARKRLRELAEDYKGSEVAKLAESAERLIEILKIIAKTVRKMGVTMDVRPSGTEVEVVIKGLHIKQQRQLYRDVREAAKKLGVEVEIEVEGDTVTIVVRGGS
Protocol: (§2) Complexes and individual components were diluted in 20 mM Tris pH 8.0, 100 mM NaCl. After o/n equilibration of the mixtures at room temperature or 4 degrees C., 500 ul of sample was injected onto a Superdex™ 200 10/300 increase GL (dimers, linear assemblies) or Superose™ 6 increase 10/300 GL (symmetric assemblies) (all columns from GE healthcare) using the absorbance at 230 nm or 473 nm (for GFP tagged components) as read-out. Dimers were mixed at monomer concentrations of 5 μM or higher. Trimer and ABCD tetramer mixtures contained 5 μM of the bivalent connector, and 7.5 μM of each terminal cap (lower absolute concentrations with the same ratios were used for some trimers). ABCA tetramer mixtures contained 5 μM per bivalent connector and 15 μM terminal cap. The hexamer mixture contained 3 μM of components C and D, 3.6 μM of B and E, and 4.4 μM of A and F. The branched assembly shown in FIG. 4A contained 2.8 μM of the trivalent connector and 4 μM of each cap. For the exchange experiment shown in FIG. 5A, the ABC trimer was preincubated at concentrations of 6 μM B and 9 μM each of A and C. C′ was then added to reach a final concentration of 2 μM B, 3 μM each of A and C, and 6 μM C′.
as §1, with “Ab initio reconstruction and homogeneous refinement in Cn symmetry were used to generate 3D electron density maps (54, 55).” left out

LHD274 B62 = molecular target: T3, LHD274 B62; assay: SEC binding assay (Superdex 200, normalised A230) of A, B and the mixture AB
T3 construct: also called LHD274 B DHR62 C
T3 single chain, LHD274 chain B fused to DHR62: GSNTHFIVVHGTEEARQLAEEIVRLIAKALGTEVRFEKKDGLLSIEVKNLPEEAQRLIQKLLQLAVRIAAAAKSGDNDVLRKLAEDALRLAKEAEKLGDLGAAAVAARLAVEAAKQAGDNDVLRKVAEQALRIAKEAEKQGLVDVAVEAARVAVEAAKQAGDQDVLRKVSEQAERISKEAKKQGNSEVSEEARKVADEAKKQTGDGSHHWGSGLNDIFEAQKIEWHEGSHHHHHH
Protocol: as §2

274B53 = molecular target: T4, 274B53; assay: as above
T4 construct: also called LHD274B DHR53 stop
T4 chain: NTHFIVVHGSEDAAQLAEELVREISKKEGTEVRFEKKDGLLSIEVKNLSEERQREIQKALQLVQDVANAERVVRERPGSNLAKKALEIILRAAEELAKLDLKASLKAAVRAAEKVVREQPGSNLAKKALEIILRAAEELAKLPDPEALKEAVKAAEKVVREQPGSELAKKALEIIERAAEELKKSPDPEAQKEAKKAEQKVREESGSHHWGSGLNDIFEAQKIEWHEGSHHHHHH
Protocol: as §2

DF275A-1 = molecular target: T5, DF275A-1; assay: SEC of mixed components; trimer listed in Table 6
T5 construct: Bivalent connector
T5 chain: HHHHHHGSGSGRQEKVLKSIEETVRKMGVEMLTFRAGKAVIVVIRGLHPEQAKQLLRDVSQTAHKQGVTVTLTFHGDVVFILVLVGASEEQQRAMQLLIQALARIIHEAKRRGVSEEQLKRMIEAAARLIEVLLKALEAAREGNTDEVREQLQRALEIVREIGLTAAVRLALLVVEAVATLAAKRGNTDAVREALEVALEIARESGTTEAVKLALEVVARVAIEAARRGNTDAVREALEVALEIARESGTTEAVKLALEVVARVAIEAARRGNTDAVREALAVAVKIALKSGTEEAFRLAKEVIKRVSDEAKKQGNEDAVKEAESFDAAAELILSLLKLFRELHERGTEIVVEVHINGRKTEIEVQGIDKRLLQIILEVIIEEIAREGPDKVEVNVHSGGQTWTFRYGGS
Protocol: as §2

DFA0 = molecular target: T6, DFA0; assay: SEC of mixed components; trimer listed in Table 6
T6 construct: Bivalent connector
T6 chain: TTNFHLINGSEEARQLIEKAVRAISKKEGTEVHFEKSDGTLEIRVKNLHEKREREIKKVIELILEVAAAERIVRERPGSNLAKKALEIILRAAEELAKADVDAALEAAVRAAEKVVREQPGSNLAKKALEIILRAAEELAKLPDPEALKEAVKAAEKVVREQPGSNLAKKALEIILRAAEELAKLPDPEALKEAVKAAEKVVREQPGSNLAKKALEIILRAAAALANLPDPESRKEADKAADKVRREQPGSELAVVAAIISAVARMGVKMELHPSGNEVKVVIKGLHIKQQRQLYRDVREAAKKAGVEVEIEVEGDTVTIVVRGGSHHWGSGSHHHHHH
Protocol: as §2

101B62 = molecular target: T7, 101B62; assay: SEC of mixed components; linear tetramer listed in Table 6, neighbours in the chain
T7 construct: also called LHD101B62
T7 chain: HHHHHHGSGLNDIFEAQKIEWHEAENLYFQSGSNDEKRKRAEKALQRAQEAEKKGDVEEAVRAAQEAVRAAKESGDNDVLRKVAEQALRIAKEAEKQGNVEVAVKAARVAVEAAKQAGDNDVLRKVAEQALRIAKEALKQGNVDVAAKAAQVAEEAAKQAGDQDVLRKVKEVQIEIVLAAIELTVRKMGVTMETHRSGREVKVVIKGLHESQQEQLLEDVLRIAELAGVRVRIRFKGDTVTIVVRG
Protocol: as §2

B1: 317B (designed binder)
chain: GGSDVEWRFTNVSEEEQEKLARFVLQVAQLAGTQVIFTTRPGELRIRVHNLDELLALAIELYAQGLRLGDKHVQHLAKKAIEAILRGDRKLARFLLEAARAMSRATERPGSNLAKKALEEILRLAEELAKDPDPESLKAAVHCAEFVVRYQPGSNLAKKALEIILRAAEELAKLPDPEALKEAVKAAEKVVREQPGSELAKKALEIIERAAEELKKSPDPEAQKEAKKAEQKVREERPGSGGSGSHHWGSGSHHHHHH
notes: also called LHD317 B; LHD317B
binding result (DFX): binds
binding result [1]: binds
binding result (TF10): binds

B2: LHD274 A64 (designed binder)
single chain, LHD274 chain A fused to DHR64: GSTTNFHLINGSEEARQLIQKAVEAISKKEGTEVHFEKSDGTLEIRVKNLHPRQEDLIKKFIEALLLALVAKGELEQAEKEGDAEVALRAVEKVVRVAELLLRLAKEAGSEEALKAALEIAEQAARLAKRVLELAEKQGDAEVALRAVELVVRVAELLLRIAKESGSEEALERALRVAEEAARLAKRVLELAEKQGDAEVARRAVELVKRVAELLERIARESGSEEAKERAERVREEARELQERVKELREREGDGSHHWGSGLNDIFEAQKIEWHEGSHHHHHH
binding result (LHD274 B62): binds
binding result (274B53): binds

B3: 206B62-2 (designed binder)
chain: HHHHHHGSGLNDIFEAQKIEWHEAENLYFQSGSNDEKRKRAEKALQRAQEAEKKGDVEEAVRAAQEAVRAAKESGDNDVLRKVAEQALRIAKEAEKQGNVEVAVKAARVAVEAAKQAGDNDVLRKVAEQALRIAKEAEKQGNVPVAVKALLVALNAAVAAGDQDVLRKISEQAERARKLAEKQGDKLLAFVLALISLVAQMGVPMEIHPSGNEVKVVIKGLHKSQQEQLLKLVLKLANKLGVNVHISFRGDTVTIRVRGGS
binding result (DF275A-1): binds

B4: DF206 (designed binder)
chain: NTHFIVVHGTEEARQLAEEIVRLIAEALGTEVRFEKKDGLLSIEVKNLPEEAQRLIQKLLQLAVRIAAAAESGDNDQLRELAEDALRLAEEAEKLGDLGAAAVAARLAVEAAKQAGDNDVLREVAEQALEIAKEAEKQGLVDVAVEAARVAVEAAKQAGDNDVLRKVAEQALRIAKEAEKQGNVEVAVKAARVAVEAAKQAGDNDVLRKVAEQALRIAKEAEKQGNVEVAALALVVAVNAAQAAGDQDLLRKIAEQAERLAKLAEKQGRRDVALLASIIALVAKMGVPMEVHPSGNEVKVVIKGLHKSQQEQLLKEVLKAANKLGVNVHISFRGDTVTIRVRGGGSHHWGSGSHHHHHH
notes: Bivalent connector
binding result (DF275A-1): binds

B5: 101B82 (designed binder)
chain: HHHHHHGSGLNDIFEAQKIEWHEAENLYFQSGSDEEVQEAVERAEELREEAEELIKKARKTGDAELLRKALEALEEAVRAVEEAIKRNPDNDEAVETAVRLARELKKVAEELQERAKKTGDAELLKLALRALEVAVRAVELAIKSNPDNDEAVETAVRLARELAKVAEELIERAKKTGDKELLKLAKRALEVAMRAVSLALKSNPDNEEARRVAAELVLLVIRAAVIEMGVTMEEHRSGNRVKVVIKGLHESQQEQLLEDVLRAAEIAGVRVRIRFKGDTVTIVVEG
binding result (DFA0): binds

B6: DFB0 (designed binder)
chain: NTHFIVVHGSEDAAQLAEELVREISKKEGTEVRFEKKDGLLSIEVKNLSEERQREIQKALQLVQDVANAERVVRERPGSNLAKKALEIILRAAEELAKLDLKASLKAAVRAAEKVVREQPGSNLAKKALEIILRAAEELAKLPDPEALKEAVKAAEKVVREQPGSNLAKKALEIILRAAEELAKLPDPEALKEAVKAAEKVVREQPGSNLAKKALEIILRAAAALANLPDPESRKEADKAADKVRREQPGSELAVVAAIISAVARMGVKMELHPSGNEVKVVIKGLHIKQQRQLYRDVREAAKKAGVEVEIEVEGDTVTIVVRGGSHHWGSGSHHHHHH
notes: Bivalent connector
binding result (101B62): binds
